The target in the assay is T1, 重组人CD47-his蛋白 (ACRO biosystems, cat#CD7-H5227, MW 15.6 kDa) (human, UniProt Q08722 19-139, biotin-labelled in the ELISAs (examples 3.1, 4.1, 4.2); unlabelled in Biacore).
T1 construct: Bought protein; also called 人CD47蛋白; 人CD47-生物素; not shown: His tag
In words: SPR (Biacore T200), antibody captured by goat anti-mouse IgG, CD47-his in solution. (In SPR one partner is held on a chip, and binding of the other changes the refractive index at the surface.)

T1 sequence (Q08722 19-139 limits assumed): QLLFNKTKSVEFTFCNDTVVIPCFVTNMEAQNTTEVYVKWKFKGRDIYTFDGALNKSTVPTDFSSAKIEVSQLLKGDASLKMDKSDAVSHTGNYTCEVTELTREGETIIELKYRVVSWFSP

B1: 小鼠抗CD47单克隆抗体1D2 (antibody, V domains shown)
VH: EVQLQQSGPELVKPGASVRISCKTSGYKFTDYNIHWVKQSHGKSLEYIGYIYPYNISSAYNQKFKSKATVTVDNSSSTSYMELRSLTSEDSAVYYCARGGWRAMDYWGQGTSVTVSS
VL: AVLMTQSPLSLPVSLGDQASLSCRSSQNIVHTNGYTYLAWYLQRPGQSPKLLIYKVSNRFSGVPDRFSGSGSGTDFTLRISRVEAEDLGVYYCFQGSHVPWTFGGGTKLEIK
notes: Tested as a mouse monoclonal antibody purified from a hybridoma; 1D2 is the only named antibody of the invention; also called 本发明的单克隆抗体1D2; 本发明的抗体1D2
As to B1, the binding result was “binds”.
